The values that follow come from patent EP1019524B1.

This experiment has as its target HeLa cell PP1α (cellular PP1α in S10 fractions of HeLa cells) (human) (UniProt P62136). Nature of the experiment: cell-based or functional assay.

HeLa cell PP1α (cellular PP1α in S10 fractions of HeLa cells) (human), sequence (P62136 2-330): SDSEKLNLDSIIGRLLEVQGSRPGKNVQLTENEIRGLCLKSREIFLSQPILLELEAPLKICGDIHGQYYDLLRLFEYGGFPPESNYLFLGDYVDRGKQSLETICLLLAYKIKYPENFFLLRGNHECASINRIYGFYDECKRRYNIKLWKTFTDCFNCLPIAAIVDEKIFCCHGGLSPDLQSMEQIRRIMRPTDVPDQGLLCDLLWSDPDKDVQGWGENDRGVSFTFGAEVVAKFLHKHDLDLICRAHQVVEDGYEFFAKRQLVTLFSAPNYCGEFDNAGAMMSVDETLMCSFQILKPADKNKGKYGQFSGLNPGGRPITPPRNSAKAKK

Substance protein phosphatase Inhibitor 2 displayed a 50% reduction in the rate of dephosphorylation of eIF-2(α32P) by the S10 fraction from R8300 virus-infected cells of 120 µg/mL and a 50% reduction in the rate of dephosphorylation of eIF-2(α32P) by the S10 fraction from wild-type virus-infected cells of 90 µg/mL.

With “γ134.5 protein of HSV-1(F), from lysates of HSV-1(F) infected cells (from UniProt P36313 1-248)”, the 32P-phosphorylase phosphatase activity of HSV-1(F)-infected cells against mock-infected cells (fold of mock-infected cells) was determined as 0.5 and the eIF-2(α32P) phosphatase activity of S10 fractions of wild type infected HeLa cells against mock-infected cells was determined as 3000 fold.

In turn, “γ134.5-MyD116 chimeric protein expressed by recombinant virus R8300 (from UniProt P36313 1-175; P17564 540-657)” yielded an eIF-2(α32P) phosphatase activity of S10 fractions of R8300 infected HeLa cells against mock-infected cells of 50 fold.
